{"source": "paper PMC10019781", "about": "“Structure and function of Plasmodium actin II in the parasite mosquito stages” (PLOS Pathogens, 2023)", "proteins": {"B1": {"name": "Plasmodium actin I (natural protein)", "chain": "not shown", "notes": "actin I of Plasmodium; its cited filament structures are of P. falciparum actin I; in the pyrene assays a mixture of pyrene-labelled and unlabelled actin was used; also called F-actin I"}, "B2": {"name": "Plasmodium falciparum actin II (natural protein)", "chain": "not shown", "modifications": "methyl-histidine at H73 (around 90% of actin II when expressed in insect cells)", "notes": "actin II of Plasmodium falciparum, PlasmoDB PF3D7_1412500; gene synthesized and codon-optimized for insect cells; In the pyrene assays (critical concentration, polymerization) a mixture of pyrene-labelled and unlabelled actin (ratio 1:3) was used; The first four N-terminal residues are not resolved in the filament maps; also called PfActII; F-actin II; source: Sf9 (Spodoptera frugiperda) cells, …"}}, "key": {"[1]": {"molecular_target": "the molecule itself", "experiment": "dynamic light scattering; polymerizing conditions, without JAS; 1.3 mg/ml, 70 ul, 4°C"}, "[2]": {"molecular_target": "the molecule itself", "experiment": "dynamic light scattering; non-polymerizing conditions; 1.3 mg/ml, 70 ul, 4°C"}}}
{"protein": "B1", "values": [{"measurement": "stoichiometry N", "setting": "[1]", "value": 2}]}
{"protein": "B2", "values": [{"measurement": "stoichiometry N", "setting": "[2]", "value": 2}]}
